Assays:
[1] = biological target: KcsA-Kv1.3 turret-filter chimera (Streptomyces lividans | human); assay: ELISA
[2] = biological target: KcsA-Kv1.3 turret-only chimera (Streptomyces lividans | human); assay: ELISA
[3] = tested on: human Kv1.3 channel (hKv1.3); assay: Whole-cell patch-clamp of phage-displayed toxins, hKv1.3 in human lymphocytes; format: cell-based; settings: perfusion concentration; phage-displayed toxin; experimentally titrated; N = 3
Experimental: Human Kv1.3 currents were recorded from activated peripheral blood mononuclear cells (see below) 3 to 4 days after activation. Heparinized human peripheral venous blood was obtained from healthy volunteers. Mononuclear cells were separated through Histopaque-1077 density gradient centrifugation. Collected cells were washed twice with Ca^2+- and Mg^2+-free Hanks’ solution containing 25 mM Hepes buffer, pH 7.4. Cells were cultured for 3 to 4 days in 24-well culture plates in a 5% CO2 incubator at 37 °C, in RPMI 1640 medium supplemented with 10% fetal calf serum (Sigma-Aldrich), 100 μg/ml penicillin, 100 μg/ml streptomycin, and 2 mM L-glutamine (density, 0.5 × 10^6 cells per ml). Phytohemagglutinin A (Sigma-Aldrich) was added to the medium at 10 μg/ml to amplify the Kv1.3 expression. Cells were washed gently twice with 2 ml of ECS for the patch-clamp experiments.
Conventional whole-cell patch-clamp electrophysiology was used to record ionic currents. Micropipettes were pulled from GC150F-7.5 borosilicate capillaries (Harvard Apparatus) with tip diameters between 0.5 and 1 μm resulting in a tip resistance of 2 to 8 MΩ in the extracellular (bath) solution. All measurements were carried out by using Axopatch 200B amplifier connected to a personal computer using Axon Digidata 1550A data acquisition hardware and Pclamp10.7 software (https://support.moleculardevices.com/s/article/Axon-pCLAMP-10-Electrophysiology-Data-Acquisition-Analysis-Software-Download-Page). The holding potential was −120 mV. Records were discarded when leak at the holding potential was >10% of peak current at the test potential. Experiments were performed at room temperature (20–24 °C). Before analysis, whole-cell current traces were corrected for ohmic leakage and digitally filtered with a three-point boxcar smoothing filter.
Solutions: all salts and components of the solutions were purchased from Sigma Aldrich. The extracellular (bath) solution (ECS) contained 145 mM NaCl, 5 mM KCl, 2.5 mM CaCl2, 1 mM MgCl2, 10 mM Hepes, and 5.5 mM glucose (pH 7.35 with NaOH), while the intracellular (pipette) solution (ICS) contained 140 mM KF, 2 mM MgCl2, 1 mM CaCl2, 11 mM EGTA, and 10 mM Hepes (pH 7.22 with KOH). The osmolarity of the ECS and ICS were 302 mOsM.
Native peptides, phage-expressed peptides, and positive controls used for them were dissolved in ECS supplemented with 0.1 mg/ml bovine serum albumin (BSA; Sigma-Aldrich Hungary). Bath perfusion around the measured cell with different extracellular solutions was achieved using a gravity flow micro perfusion system using a rate of 0.5 ml/min. Excess fluid was removed continuously.
Voltage protocols: For measurement of Kv1.1 to 1.3 currents, voltage steps to +50 mV were applied from a holding potential of −120 mV and the peak current was measured every 15 s. For Kv1.3 currents, 15-ms-long depolarizing pulses were applied. For Kv1.1, 50-ms-long–activating stimuli were used. Kv1.2 currents were evoked by 200-ms-long pulses. […] The remaining current fraction at a given molar concentration was calculated as I/I0, where I0 is the peak current in the absence and I is the peak current at equilibrium block or […] after ∼2 min perfusion by the investigated peptide/phage.
Phage display test solutions were prepared according to routine phage display protocols ([62]). Phosphorylated and annealed oligonucleotides encoding the peptide construct were ligated into linearized pAS62 phagemid vector (https://patents.google.com/patent/WO2022144560A1/en) at a vector/insert ratio of 1:3. The final phagemid construct harbored a signal sequence followed by the peptide of interest, a linker sequence ([…]), and the C-terminal part of the P3 coat protein (amino acids: 216-424 of NP_510891.1). Chemically competent XL1-Blue E. coli cells (2022249, Agilent) were transformed with the ligation product and then streaked onto ampicillin (100 μg/ml) containing LB/Amp plates and incubated for 16 h at 37 °C.

[4] = biological target: KcsA-Kv1.2 turret-only chimera (Streptomyces lividans | human); assay: ELISA
[5] = biological target: KcsA-Kv1.1 turret-only chimera (Streptomyces lividans | human); assay: ELISA
[6] = biological target: KcsA-Kv1.2 turret-filter chimera (Streptomyces lividans | human); assay: ELISA
[7] = biological target: KcsA-Kv1.1 turret-filter chimera (Streptomyces lividans | human); assay: ELISA
[8] = biological target: KcsA-Kv1.1 turret-filter chimera (Streptomyces lividans | human); assay: SDS-PAGE and western blot; purified proteins, 0.5 ug/well, Tris-Glycine gradient gel, 200 V 55 min; western blot with anti-His antibody; monomers and tetramers by migration
[9] = biological target: KcsA-Kv1.1 turret-filter chimera (Streptomyces lividans | human); assay: native gel or EMSA
[10] = biological target: KcsA-Kv1.1 turret-only chimera (Streptomyces lividans | human); assay: SDS-PAGE and western blot; purified proteins, 0.5 ug/well, Tris-Glycine gradient gel, 200 V 55 min; western blot with anti-His antibody; monomers and tetramers by migration
[11] = biological target: KcsA-Kv1.1 turret-only chimera (Streptomyces lividans | human); assay: native gel or EMSA
[12] = biological target: KcsA-Kv1.2 turret-filter chimera (Streptomyces lividans | human); assay: native gel or EMSA
[13] = biological target: KcsA-Kv1.2 turret-only chimera (Streptomyces lividans | human); assay: native gel or EMSA
[14] = biological target: KcsA-Kv1.3 turret-filter chimera (Streptomyces lividans | human); assay: SDS-PAGE and western blot; purified proteins, 0.5 ug/well, Tris-Glycine gradient gel, 200 V 55 min; western blot with anti-His antibody; monomers and tetramers by migration
[15] = biological target: KcsA-Kv1.3 turret-filter chimera (Streptomyces lividans | human); assay: native gel or EMSA
[16] = biological target: KcsA-Kv1.3 turret-only chimera (Streptomyces lividans | human); assay: SDS-PAGE and western blot; purified proteins, 0.5 ug/well, Tris-Glycine gradient gel, 200 V 55 min; western blot with anti-His antibody; monomers and tetramers by migration
[17] = biological target: KcsA-Kv1.3 turret-only chimera (Streptomyces lividans | human); assay: native gel or EMSA
[18] = biological target: human Kv1.3 voltage-gated potassium channel on activated human lymphocytes (human (endogenous in peripheral blood mononuclear cells)) (UniProt P22001)
Sequence of human Kv1.3 voltage-gated potassium channel on activated human lymphocytes (human (endogenous in peripheral blood mononuclear cells)) (P22001 whole entry): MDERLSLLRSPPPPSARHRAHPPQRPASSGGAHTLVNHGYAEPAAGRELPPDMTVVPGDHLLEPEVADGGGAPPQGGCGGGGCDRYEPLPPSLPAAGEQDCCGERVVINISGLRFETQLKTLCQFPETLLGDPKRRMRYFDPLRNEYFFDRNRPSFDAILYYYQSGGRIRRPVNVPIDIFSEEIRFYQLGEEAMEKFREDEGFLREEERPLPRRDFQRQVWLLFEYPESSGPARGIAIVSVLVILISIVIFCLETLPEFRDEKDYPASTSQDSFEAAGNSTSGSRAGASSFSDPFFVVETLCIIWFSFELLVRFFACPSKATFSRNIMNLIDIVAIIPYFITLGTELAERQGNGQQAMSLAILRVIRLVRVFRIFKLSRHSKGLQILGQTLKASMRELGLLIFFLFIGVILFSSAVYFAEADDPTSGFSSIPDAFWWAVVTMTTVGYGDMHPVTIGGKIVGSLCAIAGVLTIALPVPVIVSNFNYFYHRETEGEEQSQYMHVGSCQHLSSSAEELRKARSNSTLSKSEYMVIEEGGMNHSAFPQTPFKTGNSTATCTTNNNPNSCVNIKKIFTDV

[19] = biological target: human Kv1.3 voltage-gated potassium channel on activated human lymphocytes (human (endogenous in peripheral blood mononuclear cells)) (UniProt P22001); remark: listed apart in the source

## Hongotoxin-1, synthetic peptide (from UniProt P59847 1-39)
[1]
  IC50: 0.108 nM
[2]
  IC50: 0.671 nM

## KTX1-phage: KTX1 fused to the P3 coat protein of M13 phage with an eight amino acid linker (GVEINVKCSGSPQCLKPCKDAGMRFGKCMNRKCHCTPK; not fully specified; left off: M13 P3 coat protein C-terminal part (amino acids 216-424 of NP_510891.1) behind the linker GSASSATR, C-terminal, kept)
[3]
  phage concentration giving approximate 50% block of hKv1.3 current: ~3.6 × 10^13 particle/ml

## Kaliotoxin-1, synthetic peptide (from UniProt P24662 1-38)
[1]
  IC50: 98.2 nM
[4]
  IC50: 0.185 nM
[5]
  IC50: 1.27 nM
[6]
  IC50: 205 nM
[7]
  IC50: 1.49 nM
[2]
  IC50: 0.416 nM

## KcsA-Kv1.1 turret-filter chimera
[8]
  stoichiometry N: 4
[9]
  stoichiometry N: 4

## KcsA-Kv1.1 turret-only chimera
[10]
  stoichiometry N: 4
[11]
  stoichiometry N: 4

## KcsA-Kv1.2 turret-filter chimera
[12]
  stoichiometry N: 4

## KcsA-Kv1.2 turret-only chimera
[13]
  stoichiometry N: 4

## KcsA-Kv1.3 turret-filter chimera
[14]
  stoichiometry N: 4
[15]
  stoichiometry N: 4

## KcsA-Kv1.3 turret-only chimera
[16]
  stoichiometry N: 4
[17]
  stoichiometry N: 4

## Stichodactyla toxin ShK, synthetic peptide
[4]
  IC50: 0.07 nM
[5]
  IC50: 0.317 nM
[6]
  IC50: 15.9 nM
[7]
  IC50: 0.271 nM

## Vm24 toxin displayed on M13 phage as a fusion to the P3 coat protein (peptide)
[18]
  estimated relative potency calculated from the phage concentration required to reach 50% blocking effect on the Kv1.3 current (relative potency): 1
[19]
  phage concentration that gave a similar (50-70%) inhibition of the hKv1.3 current, whole-cell patch-clamp on human lymphocytes: 6e+10 particle/ml

## Vm24 toxin, synthetic peptide
[1]
  IC50: 0.036 nM
[2]
  IC50: 0.577 nM

B1: Maurotoxin, synthetic peptide (peptide)
peptide: VSCTGSKDCYAPCRKQTGCPNAKCINKSCKCYGC
[4]
  IC50: > 1000 nM
[5]
  IC50: > 1000 nM
[6]
  IC50: 0.129 nM
[7]
  IC50: > 1000 nM
